The assay addresses T1, AP-Nogo-66 (UniProt Q9NQC3 1055-1120).
T1 construct: domain: Nogo-66; also called AP-Ng-66; Nogo-66 ligand; not shown: alkaline phosphatase (AP) moiety
T1 sequence (looked up): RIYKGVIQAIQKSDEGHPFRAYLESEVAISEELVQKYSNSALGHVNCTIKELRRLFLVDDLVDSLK
In words: AP-ligand binding to transfected COS-7 cells. As to the method: In order to probe the NgR domains that interact with Aβ and Nogo-66, a strategy based on the crystal structure of NgR was employed. A number of human NgR surface-accessible residues were mutated to Ala either individually or as groups of adjacent residues (Table 3), and resultant ligand binding characteristics were assessed. The ligand concentrations were AP, 30 nM, AP-Nogo-66, 5 nM, AP-Aβ(1-28), 50 nM. NgR mutagenesis has been previously described. Hu et al., J Neurosci 25:5298-5304 (2005); Fournier et al., J Neurosci 23:1416-1423 (2003). The expression of each mutant NgR protein was verified by immunohistochemical detection at the surface of cells transfected with expression vector (FIG. 2a). Bound AP was stained and measured using NIH image software. Mutants of human NgR were detected on the surface of transfected COS-7 immunofluorescently. For each of the mutants with altered binding characteristics, expression of immunoreactive NgR protein with electrophoretic mobility similar to wild type was also confirmed by immunoblot (FIG. 2c). Whole COS-7 cell lysates expressing NgR mutants were subjected to SDS-PAGE and blotted with anti-NgR antibodies. The mobility of each mutant was indistinguishable from wild type NgR, except for the mutations in N-linked glycosylation sites (N82 and N179). The binding of both AP-Aβ(1-28) and AP-Nogo-66 ligands to cells expressing this collection of NgR mutant proteins was assessed at concentrations equal to the predetermined Kd's of the ligands (FIG. 2b, d).

B1: human NgR mutant 158, 160 (mutated to alanine) (receptor)
chain: CPGACVCYNEPKVTTSCPQQGLQAVPVGIPAASQRIFLHGNRISHVPAASFRACRNLTILWLHSNVLARIDAAAFTGLALLEQLDLSDNAQLRSVDPATFHGLGRLHTLHLDRCGLQELGPGLFRGLAALQALALQDNALQALPDDTFRDLGNLTHLFLHGNRISSVPERAFRGLHSLDRLLLHQNRVAHVHPHAFRDLGRLMTLYLFANNLSALPTEALAPLRALQYLRLNDNPWVCDCRARPLWAWLQKFRGSSSEVPCSLPQRLAGRDLKRLAANDLQGCAVATGPYHPIWTGRATDEEPLGLPKCCQPDAADKASVLEPGRPASAGNALKGRVPPGDSPPGNGSGPRHINDSPFGTLPGSAEPPLTAVRPEGSEPPGFPTSGPRRRPGCSRKNRTRSHCRLGQAGSGGGGTGDSE
For the molecule B1, the binding result is on record as “no binding (tested: 5 nM)”.

B2: human NgR mutant 111, 113, 114, 138 (mutated to alanine) (receptor)
chain: CPGACVCYNEPKVTTSCPQQGLQAVPVGIPAASQRIFLHGNRISHVPAASFRACRNLTILWLHSNVLARIDAAAFTGLALLEQLALAANAQLRSVDPATFHGLGRLHTLHLARCGLQELGPGLFRGLAALQYLYLQDNALQALPDDTFRDLGNLTHLFLHGNRISSVPERAFRGLHSLDRLLLHQNRVAHVHPHAFRDLGRLMTLYLFANNLSALPTEALAPLRALQYLRLNDNPWVCDCRARPLWAWLQKFRGSSSEVPCSLPQRLAGRDLKRLAANDLQGCAVATGPYHPIWTGRATDEEPLGLPKCCQPDAADKASVLEPGRPASAGNALKGRVPPGDSPPGNGSGPRHINDSPFGTLPGSAEPPLTAVRPEGSEPPGFPTSGPRRRPGCSRKNRTRSHCRLGQAGSGGGGTGDSE
With B2, the binding result is on record as “no binding (tested: 5 nM)”.

B3: human NgR mutant 182, 186 (mutated to alanine) (receptor)
chain: CPGACVCYNEPKVTTSCPQQGLQAVPVGIPAASQRIFLHGNRISHVPAASFRACRNLTILWLHSNVLARIDAAAFTGLALLEQLDLSDNAQLRSVDPATFHGLGRLHTLHLDRCGLQELGPGLFRGLAALQYLYLQDNALQALPDDTFRDLGNLTALFLAGNRISSVPERAFRGLHSLDRLLLHQNRVAHVHPHAFRDLGRLMTLYLFANNLSALPTEALAPLRALQYLRLNDNPWVCDCRARPLWAWLQKFRGSSSEVPCSLPQRLAGRDLKRLAANDLQGCAVATGPYHPIWTGRATDEEPLGLPKCCQPDAADKASVLEPGRPASAGNALKGRVPPGDSPPGNGSGPRHINDSPFGTLPGSAEPPLTAVRPEGSEPPGFPTSGPRRRPGCSRKNRTRSHCRLGQAGSGGGGTGDSE
On to B3, for which the binding result is “no binding (tested: 5 nM)”.

B4: human NgR mutant 211, 213 (mutated to alanine) (receptor)
chain: CPGACVCYNEPKVTTSCPQQGLQAVPVGIPAASQRIFLHGNRISHVPAASFRACRNLTILWLHSNVLARIDAAAFTGLALLEQLDLSDNAQLRSVDPATFHGLGRLHTLHLDRCGLQELGPGLFRGLAALQYLYLQDNALQALPDDTFRDLGNLTHLFLHGNRISSVPERAFRGLHSLDRLLLHANAVAHVHPHAFRDLGRLMTLYLFANNLSALPTEALAPLRALQYLRLNDNPWVCDCRARPLWAWLQKFRGSSSEVPCSLPQRLAGRDLKRLAANDLQGCAVATGPYHPIWTGRATDEEPLGLPKCCQPDAADKASVLEPGRPASAGNALKGRVPPGDSPPGNGSGPRHINDSPFGTLPGSAEPPLTAVRPEGSEPPGFPTSGPRRRPGCSRKNRTRSHCRLGQAGSGGGGTGDSE
For the molecule B4, the binding result was “no binding (tested: 5 nM)”.

B5: human NgR mutant 211, 213, 237, 256, 259, 284 (mutated to alanine) (receptor)
chain: CPGACVCYNEPKVTTSCPQQGLQAVPVGIPAASQRIFLHGNRISHVPAASFRACRNLTILWLHSNVLARIDAAAFTGLALLEQLDLSDNAQLRSVDPATFHGLGRLHTLHLDRCGLQELGPGLFRGLAALQYLYLQDNALQALPDDTFRDLGNLTHLFLHGNRISSVPERAFRGLHSLDRLLLHANAVAHVHPHAFRDLGRLMTLYLFANALSALPTEALAPLRALQYLALNANPWVCDCRARPLWAWLQKFRGSSSAVPCSLPQRLAGRDLKRLAANDLQGCAVATGPYHPIWTGRATDEEPLGLPKCCQPDAADKASVLEPGRPASAGNALKGRVPPGDSPPGNGSGPRHINDSPFGTLPGSAEPPLTAVRPEGSEPPGFPTSGPRRRPGCSRKNRTRSHCRLGQAGSGGGGTGDSE
Regarding B5, the binding result is on record as “no binding (tested: 5 nM)”.

B6: human NgR mutant 182, 186, 158, 160 (mutated to alanine) (receptor)
chain: CPGACVCYNEPKVTTSCPQQGLQAVPVGIPAASQRIFLHGNRISHVPAASFRACRNLTILWLHSNVLARIDAAAFTGLALLEQLDLSDNAQLRSVDPATFHGLGRLHTLHLDRCGLQELGPGLFRGLAALQALALQDNALQALPDDTFRDLGNLTALFLAGNRISSVPERAFRGLHSLDRLLLHQNRVAHVHPHAFRDLGRLMTLYLFANNLSALPTEALAPLRALQYLRLNDNPWVCDCRARPLWAWLQKFRGSSSEVPCSLPQRLAGRDLKRLAANDLQGCAVATGPYHPIWTGRATDEEPLGLPKCCQPDAADKASVLEPGRPASAGNALKGRVPPGDSPPGNGSGPRHINDSPFGTLPGSAEPPLTAVRPEGSEPPGFPTSGPRRRPGCSRKNRTRSHCRLGQAGSGGGGTGDSE
For the molecule B6, the binding result is on record as “no binding (tested: 5 nM)”.

B7: human NgR mutant 182, 186, 210 (mutated to alanine) (receptor)
chain: CPGACVCYNEPKVTTSCPQQGLQAVPVGIPAASQRIFLHGNRISHVPAASFRACRNLTILWLHSNVLARIDAAAFTGLALLEQLDLSDNAQLRSVDPATFHGLGRLHTLHLDRCGLQELGPGLFRGLAALQYLYLQDNALQALPDDTFRDLGNLTALFLAGNRISSVPERAFRGLHSLDRLLLAQNRVAHVHPHAFRDLGRLMTLYLFANNLSALPTEALAPLRALQYLRLNDNPWVCDCRARPLWAWLQKFRGSSSEVPCSLPQRLAGRDLKRLAANDLQGCAVATGPYHPIWTGRATDEEPLGLPKCCQPDAADKASVLEPGRPASAGNALKGRVPPGDSPPGNGSGPRHINDSPFGTLPGSAEPPLTAVRPEGSEPPGFPTSGPRRRPGCSRKNRTRSHCRLGQAGSGGGGTGDSE
Take B7: the binding result is given as “no binding (tested: 5 nM)”.

B8: human NgR mutant 189, 191, 211, 213 (mutated to alanine) (receptor)
chain: CPGACVCYNEPKVTTSCPQQGLQAVPVGIPAASQRIFLHGNRISHVPAASFRACRNLTILWLHSNVLARIDAAAFTGLALLEQLDLSDNAQLRSVDPATFHGLGRLHTLHLDRCGLQELGPGLFRGLAALQYLYLQDNALQALPDDTFRDLGNLTHLFLHGNAIASVPERAFRGLHSLDRLLLHANAVAHVHPHAFRDLGRLMTLYLFANNLSALPTEALAPLRALQYLRLNDNPWVCDCRARPLWAWLQKFRGSSSEVPCSLPQRLAGRDLKRLAANDLQGCAVATGPYHPIWTGRATDEEPLGLPKCCQPDAADKASVLEPGRPASAGNALKGRVPPGDSPPGNGSGPRHINDSPFGTLPGSAEPPLTAVRPEGSEPPGFPTSGPRRRPGCSRKNRTRSHCRLGQAGSGGGGTGDSE
For the molecule B8, the binding result is recorded as “no binding (tested: 5 nM)”.

B9: human NgR mutant 111, 113, 114 (mutated to alanine) (receptor)
chain: CPGACVCYNEPKVTTSCPQQGLQAVPVGIPAASQRIFLHGNRISHVPAASFRACRNLTILWLHSNVLARIDAAAFTGLALLEQLALAANAQLRSVDPATFHGLGRLHTLHLDRCGLQELGPGLFRGLAALQYLYLQDNALQALPDDTFRDLGNLTHLFLHGNRISSVPERAFRGLHSLDRLLLHQNRVAHVHPHAFRDLGRLMTLYLFANNLSALPTEALAPLRALQYLRLNDNPWVCDCRARPLWAWLQKFRGSSSEVPCSLPQRLAGRDLKRLAANDLQGCAVATGPYHPIWTGRATDEEPLGLPKCCQPDAADKASVLEPGRPASAGNALKGRVPPGDSPPGNGSGPRHINDSPFGTLPGSAEPPLTAVRPEGSEPPGFPTSGPRRRPGCSRKNRTRSHCRLGQAGSGGGGTGDSE
Take B9: the binding result is given as “no binding (tested: 5 nM)”.

B10: human NgR mutant 232, 234 (mutated to alanine) (receptor)
chain: CPGACVCYNEPKVTTSCPQQGLQAVPVGIPAASQRIFLHGNRISHVPAASFRACRNLTILWLHSNVLARIDAAAFTGLALLEQLDLSDNAQLRSVDPATFHGLGRLHTLHLDRCGLQELGPGLFRGLAALQYLYLQDNALQALPDDTFRDLGNLTHLFLHGNRISSVPERAFRGLHSLDRLLLHQNRVAHVHPHAFRDLGRLMTLALAANNLSALPTEALAPLRALQYLRLNDNPWVCDCRARPLWAWLQKFRGSSSEVPCSLPQRLAGRDLKRLAANDLQGCAVATGPYHPIWTGRATDEEPLGLPKCCQPDAADKASVLEPGRPASAGNALKGRVPPGDSPPGNGSGPRHINDSPFGTLPGSAEPPLTAVRPEGSEPPGFPTSGPRRRPGCSRKNRTRSHCRLGQAGSGGGGTGDSE
In the case of B10, the binding result is “no binding (tested: 5 nM)”.

B11: human NgR mutant 171, 172, 175, 176, 196, 199, 220, 223, 224, 250 (mutated to alanine) (receptor)
chain: CPGACVCYNEPKVTTSCPQQGLQAVPVGIPAASQRIFLHGNRISHVPAASFRACRNLTILWLHSNVLARIDAAAFTGLALLEQLDLSDNAQLRSVDPATFHGLGRLHTLHLDRCGLQELGPGLFRGLAALQYLYLQDNALQALPAATFAALGNLTHLFLHGNRISSVPEAAFAGLHSLDRLLLHQNRVAHVHPAAFAALGRLMTLYLFANNLSALPTEALAPLAALQYLRLNDNPWVCDCRARPLWAWLQKFRGSSSEVPCSLPQRLAGRDLKRLAANDLQGCAVATGPYHPIWTGRATDEEPLGLPKCCQPDAADKASVLEPGRPASAGNALKGRVPPGDSPPGNGSGPRHINDSPFGTLPGSAEPPLTAVRPEGSEPPGFPTSGPRRRPGCSRKNRTRSHCRLGQAGSGGGGTGDSE
notes: Label runs over two printed rows (r20c1 and r21c1)
For the molecule B11, the binding result is “no binding (tested: 5 nM)”.
